We go through three molecules from PMC3411838.

In this assay the target is T1, Myc-tagged CARMA1-CARD (wild type) (mouse) (UniProt Q8CIS0).
T1 sequence: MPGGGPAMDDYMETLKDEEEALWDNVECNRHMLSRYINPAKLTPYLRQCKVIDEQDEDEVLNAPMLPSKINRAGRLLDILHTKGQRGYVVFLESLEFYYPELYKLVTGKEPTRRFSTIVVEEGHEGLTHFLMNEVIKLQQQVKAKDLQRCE

B1: full-length BCL10 E50A (pEGFP-C1) (natural protein)
chain: MEAPAPSLTEEDLTEVKKDALENLRVYLCEKIIAERHFDHLRAKKILSRADTEEISCRTSSRKRAGKLLDYLQENPRGLDTLVESIRREKTQSFLIQKITDEVLKLRNIKLEHLKGLKCSSCEPFAAGATNNLSRCNSDESNLSEKQRASTVMYHPEGESSTAPFFSMASSLNLPVLEVGRTENSSFSSATLPRPGDPGAPPLPPDLRLEEGGSCGNSSEMFLPLRSRALSRQ
With B1, the NF-κB activation-dependent dual luciferase reporter in HEK293T, full-length BCL10 mutant against wild type (CARMA1 not co-transfected) is < 40%.

B2: full-length BCL10 E54A (pEGFP-C1) (natural protein)
chain: MEAPAPSLTEEDLTEVKKDALENLRVYLCEKIIAERHFDHLRAKKILSREDTEAISCRTSSRKRAGKLLDYLQENPRGLDTLVESIRREKTQSFLIQKITDEVLKLRNIKLEHLKGLKCSSCEPFAAGATNNLSRCNSDESNLSEKQRASTVMYHPEGESSTAPFFSMASSLNLPVLEVGRTENSSFSSATLPRPGDPGAPPLPPDLRLEEGGSCGNSSEMFLPLRSRALSRQ
As for B2, the NF-κB activation-dependent dual luciferase reporter in HEK293T, full-length BCL10 mutant against wild type (CARMA1 not co-transfected) is < 40%.

B3: full-length BCL10 E53A (pEGFP-C1) (natural protein)
chain: MEAPAPSLTEEDLTEVKKDALENLRVYLCEKIIAERHFDHLRAKKILSREDTAEISCRTSSRKRAGKLLDYLQENPRGLDTLVESIRREKTQSFLIQKITDEVLKLRNIKLEHLKGLKCSSCEPFAAGATNNLSRCNSDESNLSEKQRASTVMYHPEGESSTAPFFSMASSLNLPVLEVGRTENSSFSSATLPRPGDPGAPPLPPDLRLEEGGSCGNSSEMFLPLRSRALSRQ
For the molecule B3, the NF-κB activation-dependent dual luciferase reporter in HEK293T, full-length BCL10 mutant against wild type (CARMA1 not co-transfected) was < 40%.
